We go through 1 molecule from patent US20220281975A1 (Eli Lilly, published 2022).

For experiment [1], the target named is T1, Mouse ECD TREM2-His (mouse, UniProt Q99NH8 19-171).
T1 construct: also called Mouse TREM2
T1 sequence: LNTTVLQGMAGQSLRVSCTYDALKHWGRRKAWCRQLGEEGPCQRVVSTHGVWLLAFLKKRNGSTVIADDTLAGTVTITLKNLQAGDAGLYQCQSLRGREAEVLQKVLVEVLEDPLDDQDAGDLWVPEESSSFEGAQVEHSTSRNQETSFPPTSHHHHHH
Description: SPR (Biacore), 25 C; 25 C; mouse TREM2. (Surface plasmon resonance follows binding to a sensor surface in real time, without labels.)

The target in experiment [2] is T2, Human ECD TREM2-His (human, UniProt Q9NZC2 19-174).
T2 construct: also called Human TREM2; human TREM2 extracellular domain fused to a C-terminal His tag
T2 sequence: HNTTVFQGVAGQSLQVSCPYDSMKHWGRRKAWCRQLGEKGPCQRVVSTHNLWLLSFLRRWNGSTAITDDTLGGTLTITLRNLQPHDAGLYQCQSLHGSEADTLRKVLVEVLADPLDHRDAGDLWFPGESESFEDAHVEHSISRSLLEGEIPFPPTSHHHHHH
Description: SPR (Biacore), 25 C; 25 C; human TREM2.

For experiment [3], the target named is T3, human TREM2 expressed on BW5147.G.1.4 cells (human, UniProt Q9NZC2 19-230).
T3 construct: whole, on cells; Co-expressed with the adapter DAP12; also called TREM2 expressing BW5147.G.1.4 cells
T3 sequence (looked up): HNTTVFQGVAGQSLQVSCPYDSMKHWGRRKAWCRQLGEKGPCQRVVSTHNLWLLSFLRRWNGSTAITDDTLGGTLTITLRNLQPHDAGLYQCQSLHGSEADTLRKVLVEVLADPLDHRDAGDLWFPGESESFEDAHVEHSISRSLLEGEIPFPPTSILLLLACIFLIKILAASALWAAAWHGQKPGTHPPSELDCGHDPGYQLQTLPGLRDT
Kind of experiment: flow cytometry (MFI) on BW5147.G.1.4 cells expressing human TREM2 and DAP12, anti-human IgG Alexa Fluor 647 detection. The procedure: To investigate whether Antibody 1 binds to TREM2-expressing cells, a binding experiment is performed. BW5147.G.1.4 cell line is transduced to express human TREM2 and its adapter […] adapter protein 12 (DAP12). To assess binding, 500,000 cells are incubated in the presence of Antibody 1 with a 3-fold 12-point titration starting at 30 μg/ml for 30 minutes at 37° C. Antibody binding is detected using goat anti-human IgG Alexa Fluor 647 (Jackson Labs). Mean fluorescence intensity (MFI) is measured using an Accuri C6 Plus flow cytometer (BD Biosciences).
For orientation: A flow cytometer gives signals particle by particle.

The target of experiment [4] is T4, Cyno ECD TREM2-His (cynomolgus monkey).
T4 construct: also called Cyno TREM2; cynomolgus monkey TREM2
T4 chain: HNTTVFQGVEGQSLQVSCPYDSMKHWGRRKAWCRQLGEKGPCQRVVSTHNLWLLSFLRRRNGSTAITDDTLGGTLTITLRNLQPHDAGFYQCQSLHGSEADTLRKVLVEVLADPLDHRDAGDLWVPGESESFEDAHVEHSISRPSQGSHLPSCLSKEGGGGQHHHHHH
Description: SPR (Biacore), 25 C; 25 C; cynomolgus TREM2.

Experiment [5] has as its target T2, Human ECD TREM2-His. Description: SPR (Biacore), 37 C, antibody captured on protein A, TREM2-His ECD analyte, 1:1 model. The procedure:
(§1) The binding kinetics and affinity of TREM2 antibodies to human (SEQ ID NO: 11), mouse (SEQ ID NO: 12), rat (SEQ ID NO: 14), rabbit (SEQ ID NO: 13), or cynomolgus monkey (SEQ ID NO: 15) TREM2 extracellular domains (ECDs) fused to a C-terminal His tag are determined using surface plasmon resonance biosensor such as a BIAcore® T100, BIAcore® T200, or BIAcore® 8K (GE Healthcare, Piscataway, N .).
(§2) Samples are dissolved in 1xHBS-EP+running buffer (Teknova), and a protein A coupled CM5 Series S sensor chip (GE Healthcare) is utilized to capture antibody. Binding is evaluated using multiple analytical cycles. Each cycle is performed at 37° C. at a flow rate of 50 μl/min for antibody capture and 30 μl/min for ligand association and dissociation. Each cycle consists of the following: injection of 7 μl of 1 μg/ml antibody with the aim at a capture of 150-250 response units, injection of human, cynomolgus monkey, rabbit, rat, or mouse TREM2-His ECDs (starting at 20nM and using two-fold serial dilutions for each cycle) followed by 200 seconds for association, followed by 800 second dissociation phase, and regeneration using 10 mM glycine hydrochloride, pH 1.5 over a 30 second contact time. Association (i.e., kₒₙ) and dissociation rates (i.e., koff) for each cycle are evaluated using standard double referencing and fit to “1:1 (Langmuir) binding” model in the Biacore 8K evaluation in parallel kinetics batch mode. The affinity (KD) is calculated from the binding kinetics according to the relationship KD=Koff/Kₒₙ. Due to biphasic binding data for Reference Antibody A, a heterogenous ligand 2:1 binding modeling found in the Biacore 8K evaluation was used to calculate the KD. […] N=3 for Antibody 1 and Reference Antibody A, and n=1 for Reference Antibody B.

Experiment [6] has as its target T1, Mouse ECD TREM2-His. Described as above. On the procedure:
as §1, §2

The target in experiment [7] is T4, Cyno ECD TREM2-His. The description is as above. On the procedure: as §1, §2
Experiment [8] addresses T5, Human TREM2 R47H (human, UniProt Q9NZC2 19-174, limits assumed).
T5 construct: also called human R47H TREM mutant; R47H TREM
T5 sequence (looked up): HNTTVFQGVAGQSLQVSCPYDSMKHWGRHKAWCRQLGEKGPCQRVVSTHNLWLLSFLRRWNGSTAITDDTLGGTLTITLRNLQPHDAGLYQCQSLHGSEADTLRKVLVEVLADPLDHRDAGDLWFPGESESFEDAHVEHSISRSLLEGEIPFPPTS
Kind of experiment: SPR (Biacore), 37 C, antibody captured on protein A, TREM2 R47H analyte, 1:1 model.

Experiment [9] concerns the target T6, Rabbit ECD TREM2-HIS (rabbit).
T6 construct: also called rabbit TREM2
T6 chain: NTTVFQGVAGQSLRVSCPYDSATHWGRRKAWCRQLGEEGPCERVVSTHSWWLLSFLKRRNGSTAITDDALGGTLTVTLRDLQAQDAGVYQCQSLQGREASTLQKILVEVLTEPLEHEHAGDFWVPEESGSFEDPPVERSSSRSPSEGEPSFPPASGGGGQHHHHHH
Description: SPR (Biacore), 37 C, antibody captured on protein A, TREM2-His ECD as analyte. The procedure:
as §1
(§3) Samples are dissolved in 1xHBS-EP+running buffer (Teknova), and a protein A coupled CM5 Series S sensor chip (GE Healthcare) is utilized to capture antibody. Binding is evaluated using multiple analytical cycles. Each cycle is performed at 37° C. at a flow rate of 50 μl/min for antibody capture and 30 μl/min for ligand association and dissociation. […] Association (i.e., kₒₙ) and dissociation rates (i.e., koff) for each cycle are evaluated using standard double referencing and fit to “1:1 (Langmuir) binding” model in the Biacore 8K evaluation in parallel kinetics batch mode. The affinity (KD) is calculated from the binding kinetics according to the relationship KD=Koff/Kₒₙ. […]

The target in experiment [10] is T7, Rat ECD TREM2-His (rat).
T7 construct: also called Rat TREM2
T7 chain: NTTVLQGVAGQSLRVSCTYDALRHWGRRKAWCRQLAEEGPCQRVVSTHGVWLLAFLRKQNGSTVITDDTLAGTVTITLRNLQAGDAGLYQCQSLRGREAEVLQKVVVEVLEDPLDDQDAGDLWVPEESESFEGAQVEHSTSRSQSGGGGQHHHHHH
The description is as above. On the procedure:
as §1, §3

In experiment [11] the target is T3, human TREM2 expressed on BW5147.G.1.4 …. Kind of experiment: cell-based or functional assay.
Experiment [12] addresses T5, Human TREM2 R47H. Description: SPR (Biacore), 25 C; 25 C; human TREM2 R47H.

B1: TREM2 Antibody 1 (antibody, human IgG4 S228P, kappa, F234A L235A, V domains shown)
VH: EVQLVQSGAEVKKPGESLKISCKGSGFSFNTYWIGWVRQMPGKGLEWMGIIYPGDQDIRYSPSFQGQVTISADKSISTAYLQWSSLKASDTAMYYCARYGRYIYGYGGYHGMDVWGQGTTVTVSS
VL: DIQMTQSPSSLSASVGDRVTITCRASQAIRDDLGWYQQKPGKAPKLLIYAASSLQSGVPSRFSGSGSGTDFTLTISSLQPEDFATYYCLQNYNYPHTFGQGTKLEIKR
notes: Human antibody with a kappa light chain
Consider B1, for which the Kd (in general, a measure of binding affinity in units of concentration) in [1] stood at 3.9 nM; in experiment [2] it was 0.15 nM; in experiment [4], 0.043 nM; in experiment [5], 0.17 nM; in experiment [6] it was 1.6 nM; in experiment [7], 0.075 nM. The Kd was found to be 0.075 nM in experiment [8] and 0.29 nM in experiment [12]. The EC50 (as a rule, the midpoint of the concentration-response curve) in experiment [3] was 0.08 µg/mL. The koff (commonly a measure of how fast the partners let go of each other) amounted to 0.00058 s⁻¹ in experiment [5], 0.044 s⁻¹ in experiment [6], 0.00037 s⁻¹ in experiment [7] and 0.00037 s⁻¹ in experiment [8]. The kon (commonly the second-order rate constant of association) stood at 3.4e+06 M⁻¹ s⁻¹ in experiment [5], 2.5e+07 M⁻¹ s⁻¹ in experiment [6], 5e+06 M⁻¹ s⁻¹ in experiment [7] and 5e+06 M⁻¹ s⁻¹ in experiment [8]. Also, the binding result in [9] is “no binding”; in experiment [10], “no binding (tested: 200 nM TREM2)”. Moreover, in experiment [11], the “IC50 of inhibition of PS-mediated NFAT activation (luciferase reporter cells)” value was determined as 0.4 µg/mL.
